We go through six sequences from the supplement of paper PMC5998384.

Series [1] relates to HeLa Kyoto. As to the kind of experiment: solubility change mitosis vs G1/S (difference of NP-40 vs SDS log2 ratios) (log2 ratio difference); higher = more soluble in mitosis.
Series [2] has as its system HeLa Kyoto. The series can be described thus: thermal stability score vs G1/S (z-score of summed log2 fold changes over temperatures); higher = more thermally stable than in G1/S.
Series [3] relates to HeLa Kyoto. The series can be described thus: solubility in G1/S (NP-40 vs SDS abundance) (log2 ratio); higher = more soluble. The following applies: cell cycle stage: G1/S.
For series [4], the system named is HeLa Kyoto. As to the kind of experiment: melting temperature (median over replicates), in situ; higher = more thermally stable.
[5] abbreviates: cell cycle stage: early G1 (4.5 h after nocodazole release).
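Wherever melting temperature (median over replicates), in situ is given: HeLa Kyoto cells synchronized by double thymidine or nocodazole block, proteins quantified by TMT10plex mass spectrometry, three independent biological replicates.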
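Wherever solubility change mitosis vs G1/S (difference of NP-40 vs SDS log2 ratios) is given: synchronized HeLa Kyoto cells (double thymidine block for G1/S, nocodazole release for mitosis), protein amounts in NP-40 versus SDS lysates quantified by mass spectrometry, three biological replicates.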
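Wherever solubility in G1/S (NP-40 vs SDS abundance) is given: HeLa Kyoto cells arrested at G1/S by double thymidine block, proteins quantified by TMT10plex mass spectrometry in mild NP-40 versus SDS extracts, three biological replicates.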
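Wherever thermal stability score vs G1/S (z-score of summed log2 fold changes over temperatures) is given: synchronized HeLa Kyoto cells, proteins quantified by TMT10plex mass spectrometry, three biological replicates, mitosis taken 0.5 h after nocodazole release, G1/S directly after double thymidine block.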

With “MADPDVLTEVPAALKRLAKYVIRGFYGIEHALALDILIRNSCVKEEDMLELLKFDRKQLRSVLNNLKGDKFIKCRMRVETAADGKTTRHNYYFINYRTLVNVVKYKLDHMRRRIETDERDSTNRASFKCPVCSSTFTDLEANQLFDPMTGTFRCTFCHTEVEEDESAMPKKDARTLLARFNEQIEPIYALLRETEDVNLAYEILEPEPTEIPALKQSKDHAATTAGAASLAGGHHREAWATKGPSYEDLYTQNVVINMDDQEDLHRASLEGKSAKERPIWLRESTVQGAYGSEDMKEGGIDMDAFQEREEGHAGPDDNEEVMRALLIHEKKTSSAMAGSVGAAAPVTAANGSDSESETSESDDDSPPRPAAVAVHKREEDEEEDDEFEEVADDPIVMVAGRPFSYSEVSQRPELVAQMTPEEKEAYIAMGQRMFEDLFE [GTF2E1]”, the “solubility change mitosis (log2)” value in series [1] was -0.0795. The thermal stability score was 2.94 in series [2] (setting [5]) and 5.05 in series [2] (cell cycle stage: mitosis). The “solubility in G1/S (log2)” value in series [3] was -0.111. The melting temperature in series [4] (cell cycle stage: G1/S) stood at 48.4 °C; in series [4] (cell cycle stage: mitosis), 49.4 °C.

Consider “MADQPKPISPLKNLLAGGFGGVCLVFVGHPLDTVKVRLQTQPPSLPGQPPMYSGTFDCFRKTLFREGITGLYRGMAAPIIGVTPMFAVCFFGFGLGKKLQQKHPEDVLSYPQLFAAGMLSGVFTTGIMTPGERIKCLLQIQASSGESKYTGTLDCAKKLYQEFGIRGIYKGTVLTLMRDVPASGMYFMTYEWLKNIFTPEGKRVSELSAPRILVAGGIAGIFNWAVAIPPDVLKSRFQTAPPGKYPNGFRDVLRELIRDEGVTSLYKGFNAVMIRAFPANAACFLGFEVAMKFLNWATPNL [SLC25A20]”, for which the “solubility change mitosis (log2)” value in series [1] is -0.108. The values for the thermal stability score in series [2] (setting [5]) and in series [2] (cell cycle stage: mitosis) were -1.89 and -0.401, respectively. Moreover, the “solubility in G1/S (log2)” value in series [3] is -0.0167. For the same sequence, the melting temperature in series [4] (cell cycle stage: G1/S) amounted to 58 °C; in series [4] (cell cycle stage: mitosis), 56.7 °C.

For the sequence “MADRDSGSEQGGAALGSGGSLGHPGSGSGSGGGGGGGGGGGGSGGGGGGAPGGLQHETQELASKRVDIQNKRFYLDVKQNAKGRFLKIAEVGAGGNKSRLTLSMSVAVEFRDYLGDFIEHYAQLGPSQPPDLAQAQDEPRRALKSEFLVRENRKYYMDLKENQRGRFLRIRQTVNRGPGLGSTQGQTIALPAQGLIEFRDALAKLIDDYGVEEEPAELPEGTSLTVDNKRFFFDVGSNKYGVFMRVSEVKPTYRNSITVPYKVWAKFGHTFCKYSEEMKKIQEKQREKRAACEQLHQQQQQQQEETAAATLLLQGEEEGEED [PURA]”, the “solubility change mitosis (log2)” value in series [1] amounted to 0.112. Also, the results for the thermal stability score in series [2] (setting [5]) and in series [2] (cell cycle stage: mitosis) were -2.25 and -4.83, respectively. In addition, the “solubility in G1/S (log2)” value in series [3] was 0.415. The melting temperature is 58 °C in series [4] (cell cycle stage: G1/S) and 56.5 °C in series [4] (cell cycle stage: mitosis).

Take “MADREGGCAAGRGRELEPELEPGPGPGSALEPGEEFEIVDRSQLPGPGDLRSATRPRAAEGWSAPILTLARRATGNLSASCGSALRAAAGLGGGDSGDGTARAASKCQMMEERANLMHMMKLSIKVLLQSALSLGRSLDADHAPLQQFFVVMEHCLKHGLKVKKSFIGQNKSFFGPLELVEKLCPEASDIATSVRNLPELKTAVGRGRAWLYLALMQKKLADYLKVLIDNKHLLSEFYEPEALMMEEEGMVIVGLLVGLNVLDANLCLKGEDLDSQVGVIDFSLYLKDVQDLDGGKEHERITDVLDQKNYVEELNRHLSCTVGDLQTKIDGLEKTNSKLQEELSAATDRICSLQEEQQQLREQNELIRERSEKSVEITKQDTKVELETYKQTRQGLDEMYSDVWKQLKEEKKVRLELEKELELQIGMKTEMEIAMKLLEKDTHEKQDTLVALRQQLEEVKAINLQMFHKAQNAESSLQQKNEAITSFEGKTNQVMSSMKQMEERLQHSERARQGAEERSHKLQQELGGRIGALQLQLSQLHEQCSSLEKELKSEKEQRQALQRELQHEKDTSSLLRMELQQVEGLKKELRELQDEKAELQKICEEQEQALQEMGLHLSQSKLKMEDIKEVNQALKGHAWLKDDEATHCRQCEKEFSISRRKHHCRNCGHIFCNTCSSNELALPSYPKPVRVCDSCHTLLLQRCSSTAS [RUFY1]”: the “solubility change mitosis (log2)” value in series [1] was -0.0933. In addition, the results for the thermal stability score in series [2] (setting [5]) and in series [2] (cell cycle stage: mitosis) were 0.538 and 1.01, respectively. Also, in series [3], the “solubility in G1/S (log2)” value is 0.163. Moreover, the melting temperature in series [4] (cell cycle stage: G1/S) was found to be 49.5 °C; in series [4] (cell cycle stage: mitosis), 49.8 °C.

Consider “MADSELQLVEQRIRSFPDFPTPGVVFRDISPVLKDPASFRAAIGLLARHLKATHGGRIDYIAGLDSRGFLFGPSLAQELGLGCVLIRKRGKLPGPTLWASYSLEYGKAELEIQKDALEPGQRVVVVDDLLATGGTMNAACELLGRLQAEVLECVSLVELTSLKGREKLAPVPFFSLLQYE [APRT]”, for which the “solubility change mitosis (log2)” value in series [1] was -0.0341. For the same sequence, the thermal stability score in series [2] (setting [5]) came to 3.79; in series [2] (cell cycle stage: mitosis) it was 2.38. Also, the “solubility in G1/S (log2)” value in series [3] is 0.361. Moreover, the melting temperature in series [4] (cell cycle stage: G1/S) was 57.1 °C; in series [4] (cell cycle stage: mitosis), 55.8 °C.

Regarding “MAEAALLLLPEAAAERDAREKLALWDRRPDTTAPLTDRQTDSVLELKAAAENLPVPAELPIEDLCSLTSQSLPIELTSVVPESTEDILLKGFTSLGMEEERIETAQQFFSWFAKLQTQMDQDEGTKYRQMRDYLSGFQEQCDAILNDVNSALQHLESLQKQYLFVSNKTGTLHEACEQLLKEQSELVDLAENIQQKLSYFNELETINTKLNSPTLSVNSDGFIPMLAKLDDCITYISSHPNFKDYPIYLLKFKQCLSKALHLMKTYTVNTLQTLTSQLLKRDPSSVPNADNAFTLFYVKFRAAAPKVRTLIEQIELRSEKIPEYQQLLNDIHQCYLDQRELLLGPSIACTVAELTSQNNRDHCALVRSGCAFMVHVCQDEHQLYNEFFTKPTSKLDELLEKLCVSLYDVFRPLIIHVIHLETLSELCGILKNEVLEDHVQNNAEQLGAFAAGVKQMLEDVQERLVYRTHIYIQTDITGYKPAPGDLAYPDKLVMMEQIAQSLKDEQKKVPSEASFSDVHLEEGESNSLTKSGSTESLNPRPQTTISPADLHGMWYPTVRRTLVCLSKLYRCIDRAVFQGLSQEALSACIQSLLGASESISKNKTQIDGQLFLIKHLLILREQIAPFHTEFTIKEISLDLKKTRDAAFKILNPMTVPRFFRLNSNNALIEFLLEGTPEIREHYLDSKKDVDRHLKSACEQFIQQQTKLFVEQLEEFMTKVSALKTMASQGGPKYTLSQQPWAQPAKVNDLAATAYKTIKTKLPVTLRSMSLYLSNKDTEFILFKPVRNNIQQVFQKFHALLKEEFSPEDIQIIACPSMEQLSLLLLVSK [COG3]”, the “solubility change mitosis (log2)” value in series [1] is -0.0733. For the same sequence, the results for the thermal stability score in series [2] (setting [5]) and in series [2] (cell cycle stage: mitosis) were 0.629 and 1.07, respectively. Also, the “solubility in G1/S (log2)” value in series [3] stood at 0.235. Further, the values for the melting temperature in series [4] (cell cycle stage: G1/S) and in series [4] (cell cycle stage: mitosis) were 50.9 °C and 49.7 °C, respectively.
